Patent publication US20240247080A1, “GLP1/GIP/NPY2 RECEPTOR TRIPLE AGONISTS” (Boehringer Ingelheim International GmbH, priority 2022, published 2024)
Starred links: 1 amine or outer side, 2 acyl side, 3 side chain; linkers in the order of their positions; H or OH if unused. Non-standard residues stand in square brackets, D forms with d. Groups on a side chain read outwards from the residue. No end group written: not given here. *: point of attachment. C20 diacid = O=C(O)CCCCCCCCCCCCCCCCCCC(=O)*; C18 diacid = O=C(O)CCCCCCCCCCCCCCCCC(=O)*; γGlu = O=C(O)[C@H](CCC(=O)[*:2])N[*:1]; εLys = N[C@@H](CCCCN[*:1])C(=O)[*:2]; AEEA = NCCOCCOCC(=O)O; Aib = CC(C)(N)C(=O)O; OEG = OEG spacer

T1: human GIP receptor (human, UniProt P48546 22-466)
T1 sequence (looked up): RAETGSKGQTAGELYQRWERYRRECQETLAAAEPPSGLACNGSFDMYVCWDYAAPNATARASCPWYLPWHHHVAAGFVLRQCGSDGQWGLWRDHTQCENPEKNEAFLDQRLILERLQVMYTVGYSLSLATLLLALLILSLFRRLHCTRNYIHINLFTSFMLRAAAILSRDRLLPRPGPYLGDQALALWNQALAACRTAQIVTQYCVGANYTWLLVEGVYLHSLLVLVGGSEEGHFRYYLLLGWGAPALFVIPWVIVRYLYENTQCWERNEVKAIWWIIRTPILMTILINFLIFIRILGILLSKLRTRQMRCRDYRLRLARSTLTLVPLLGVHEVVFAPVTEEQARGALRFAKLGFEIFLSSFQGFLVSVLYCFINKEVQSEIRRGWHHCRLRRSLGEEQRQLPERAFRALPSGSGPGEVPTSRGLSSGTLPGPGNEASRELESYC

T2: human neuropeptide Y2 receptor (human, UniProt P49146 1-381)
T2 sequence (looked up): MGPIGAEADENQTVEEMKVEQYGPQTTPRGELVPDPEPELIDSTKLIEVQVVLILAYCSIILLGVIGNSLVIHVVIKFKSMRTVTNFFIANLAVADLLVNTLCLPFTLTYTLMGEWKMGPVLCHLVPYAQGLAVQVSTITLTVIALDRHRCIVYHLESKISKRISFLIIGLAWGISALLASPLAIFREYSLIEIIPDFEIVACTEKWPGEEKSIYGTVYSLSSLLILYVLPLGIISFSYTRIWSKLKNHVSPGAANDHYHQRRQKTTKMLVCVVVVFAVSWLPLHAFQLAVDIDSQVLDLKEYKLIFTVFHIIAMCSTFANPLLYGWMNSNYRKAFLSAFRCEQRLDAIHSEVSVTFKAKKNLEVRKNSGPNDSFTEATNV

B1: Compound 289 (peptide)
peptide: YXEGTFTSDYSIXLEKQAQXAFVEWLIKGGPSEGASLRHYYNWLTRQRY
modifications: Aib at 2, 13, 20; K28 side chain acylated with C20DA-gGlu-gGlu-gGlu-gGlu-gGlu; C-terminal amide (NH2)
B2: Compound 292 (peptide)
peptide: YXEGTFTSDYSIXLEKQAQXAFVEWLIKGGPSEGASLRHYYNWLTRQRY
modifications: Aib at 2, 13, 20; K28 side chain acylated with C18DA-gGlu-gGlu-gGlu-gGlu-gGlu; C-terminal amide (NH2)
B3: Compound 293 (peptide)
peptide: YXEGTFTSDYSIXLEKQAQXAFVEWLIKGGPSEGASLRHYYNWLTRQRY
modifications: Aib at 2, 13, 20; K28 side chain acylated with C18DA-gGlu-Glu-gGlu-gGlu-gGlu-gGlu-eLys (so in the source); C-terminal amide (NH2)

Assays:
Experiment in all cases: cell-based or functional assay
[1] = target: human GLP-1 receptor (human, UniProt P43220 24-463)
[2] = target: T1, human GIP receptor
[3] = target: T2, human neuropeptide Y2 receptor

| Binder | EC50 hGLP1R 0.5% hP (CreLuc) [1] [nM] | EC50 hGLP1R 100% hP (CreLuc) [1] [nM] | EC50 hGIPR 0.5% hP (CreLuc) [2] [nM] | EC50 hGIPR 100% hP (CreLuc) [2] [nM] | EC50 hNPY2R 0.5% hP (CreLuc) [3] [nM] | EC50 hNPY2R 100% hP (CreLuc) [3] [nM] |
| --- | --- | --- | --- | --- | --- | --- |
| Y[Aib]EGTFTSDYSI[Aib]LEKQAQ[Aib]AFVEWLIK([AEEA-AEEA-γGlu-γGlu-γGlu-γGlu-C18 diacid])GGPSEGASLRHYYNWLTRQRY-NH2 (also: TFA salt) [Compound 297] | 0.12 | 3.74 | 0.25 | 0.93 | 14.4 | 40.5 |
| Y[Aib]EGTFTSDYSI[Aib]LEKQAQ[Aib]AFVEWLIK([OEG-OEG-Glu-Glu-Glu-C18 diacid])GGPSEGASLRHYYNWLTRQRY-NH2 (also: TFA salt) [Compound 298] | 0.11 | 5.22 | 0.13 | 1.27 | 12.1 | 66.5 |
| Y[Aib]EGTFTSDYSI[Aib]LEKQAQ[Aib]AFVEWLIKGGPSEGASLRHYYNWLTRQRY-NH2 (not fully specified (residue 28); also: TFA salt) [Compound 286] | 0.27 | 5.97 | 0.42 | 2.03 | 15.7 | 43.4 |
| Y[Aib]EGTFTSDYSI[Aib]LEKQAQ[Aib]EFVEWLIK([AEEA-AEEA-γGlu-γGlu-γGlu-C18 diacid])GGPSEGASLRHYYNWLTRQRY-NH2 (also: TFA salt) [Compound 284] | 0.51 | 12.6 | 0.33 | 0.8 | 18.8 | 44.7 |
| Y[Aib]EGTFTSDYSI[Aib]LEKQAQ[Aib]AFVEWLIK([εLys-γGlu-γGlu-γGlu-γGlu-γGlu-γGlu-γGlu-C20 diacid])GGPSEGASLRHYYNWLTRQRY-NH2 (also: TFA salt) [Compound 288] | 0.17 | 3.21 | 0.51 | 2.43 | 14.3 | 36.8 |
| Y[Aib]EGTFTSDYSI[Aib]LEKQAQ[Aib]AFVEWLIK([Glu-Glu-Glu-Glu-C18 diacid])GGPSEGASLRHYYNWLTRQRY-NH2 (also: TFA salt) [Compound 291] | 0.1 | 2.35 | 0.18 | 0.7 | 14.3 | 55.3 |
| Y[Aib]EGTFTSDYSI[Aib]LEKQAQ[Aib]AFVEWLIK([AEEA-AEEA-γGlu-γGlu-γGlu-γGlu-C20 diacid])GGPSEGASLRHYYNWLTRQRY-NH2 (also: TFA salt) [Compound 287] | 0.27 | 6.34 | 0.34 | 2.42 | 13.3 | 45.9 |
| Y[Aib]EGTFTSDYSI[Aib]LEKQAQ[Aib]AFVEWLIK([γGlu-γGlu-γGlu-γGlu-C18 diacid])GGPSEGASLRHYYNWLTRQRY-NH2 (also: TFA salt) [Compound 294] | 0.08 | 3.2 | 0.21 | 0.89 | 14.2 | 55.2 |
| Y[Aib]EGTFTSDYSI[Aib]LEKQAQ[Aib]AFVEWLIKGGPSEGASLRHYYNWLTRQRY-NH2 (not fully specified (residue 28); also: TFA salt) [Compound 296] | 0.11 | 3.5 | 1.39 | 1.11 | 14.1 | 56.5 |
| Y[Aib]EGTFTSDYSI[Aib]LEKQAQ[Aib]AFVEWLIKGGPSEGASLRHYYNWLTRQRY-NH2 (not fully specified (residue 28); also: TFA salt) [Compound 295] | 0.14 | 3.53 | 0.3 | 0.98 | 10.9 | 30.2 |
| Y[Aib]EGTFTSDYSI[Aib]LEKQAQ[Aib]AFVEWLIK([εLys-γGlu-Glu-γGlu-γGlu-γGlu-C20 diacid])GGPSEGASLRHYYNWLTRQRY-NH2 (also: TFA salt) [Compound 290] | 0.13 | 2.87 | 0.89 | 1.18 | 9.68 | 46.3 |
| B1 | 0.14 | 3.51 | 0.7 | 1.75 | 11.1 | 56.3 |
| B2 | 0.13 | 5.01 | 0.16 | 2.46 | 19.9 | 70 |
| B3 | 0.18 | 4.21 | 0.26 | 1.33 | 13.6 | 37.5 |
| Y[Aib]EGTFTSDYSI[Aib]LEKQAQ[Aib]AFVEWLIKGGPEEGASLRHYYNWLTRQRY-NH2 (not fully specified (residue 28); also: TFA salt) [Compound 285] | 0.34 | 11.6 | 1.57 | 1.54 | 15.8 | 48.8 |
| Y[Aib]EGTFTSDYSI[Aib]LEKQAQ[Aib]AFIEWLIK([γGlu-γGlu-γGlu-γGlu-C20 diacid])GGPSEGASLRHYYNWLTRQRY-NH2 (also: TFA salt) [Compound 283] | 0.13 | 3.86 | 0.23 | 1.86 | 14.7 | 104 |
